Experimental data: PMC8551067 (Biochemistry, 2021)

Assays:
[1] = biological target: PvCPS (full-length copalyl diphosphate synthase) (Talaromyces verruculosus, UniProt A0A348FUE1, S723T); conditions: substrate inhibition constant; 1 mM DMAPP, 1 mM MgCl2, pH 7.5
[2] = biological target: S723F-PvCPS-α (prenyltransferase α domain of copalyl diphosphate synthase from Penicillium verruculosum, S723F variant) (Penicillium verruculosum); assay: crystal structure
[3] = substrate: C=C(C)CCO[P@@](=O)(O)OP(=O)(O)O; assay: purified protein; conditions: prenyltransferase activity, 1 mM DMAPP, 1 mM MgCl2, pH 7.5

Row | S723T [1] [µM] | stoichiometry N [2] | Molecule | Km [3] [µM] | kcat [3] [s⁻¹] | kcat/Km [3] [M⁻¹ s⁻¹]
1 | 700 ± 100 |  | C=C(C)CCOP(=O)(O)OP(=O)(O)O [isopentenyl diphosphate] |  |  | 
2 |  | 6 | S723F-PvCPS-α (prenyltransferase α domain of copalyl diphosphate synthase from Penicillium verruculosum, S723F variant) (domain or fragment) |  |  | 
3 |  |  | PvCPS (full-length copalyl diphosphate synthase) (Talaromyces verruculosus; H786A) (protein) MSPMDLQESAAALVRQLGERVEDRRGFGFMSPAIYDTAWVSMISKTIDDQKTWLFAECFQYILSHQLEDGGWAMYASEIDAILNTSASLLSLKRHLSNPYQITSITQEDLSARINRAQNALQKLLNEWNVDSTLHVGFEILVPALLRYLEDEGIAFAFSGRERLLEIEKQKLSKFKAQYLYLPIKVTALHSLEAFIGAIEFDKVSHHKVSGAFMASPSSTAAYMMHATQWDDECEDYLRHVIAHASGKGSGGVPSAFPSTIFESVWPLSTLLKVGYDLNSAPFIEKIRSYLHDAYIAEKGILGFTPFVGADADDTATTILVLNLLNQPVSVDAMLKEFEEEHHFKTYSQERNPSFSANCNVLLALLYSQEPSLYSAQIEKAIRFLYKQFTDSEMDVRDKWNLSPYYSWMLMTQAITRLTTLQKTSKLSTLRDDSISKGLISLLFRIASTVVKDQKPGGSWGTRASKEETAYAVLILTYAFYLDEVTESLRHDIKIAIENGCSFLSERTMQSDSEWLWVEKVTYKSEVLSEAYILAALKRAADLPDENAEAAPVINGISTNGFEHTDRINGKLKVNGTNGTNGSHETNGINGTHEIEQINGVNGTNGHSDVPHDTNGWVEEPTAINETNGHYVNGTNHETPLTNGISNGDSVSVHTDHSDSYYQRSDWTADEEQILLGPFDYLESLPGKNMRSQLIQSFNTWLKVPTESLDVIIKVISMLHTASLLIDDIQDQSILRRGQPVAHSIFGTAQAMNSGNYVYFLALREVQKLQNPKAISIYVDSLIDLARGQGMELFWRDSLMCPTEEQYLDMVANKTGGLFCLAIQLMQAEATIQVDFIPLVRLLGIIFQICDDYLNLKSTAYTDNKGLCEDLTEGKFSFPIIHSIRSNPGNRQLINILKQKPREDDIKRYALSYMESTNSFEYTRGVVRKLKTEAIDTIQGLEKHGLEENIGIRKILARMSLEL | 160 ± 10 | 0.027 | 170
4 |  |  | PvCPS (full-length copalyl diphosphate synthase) (Talaromyces verruculosus; S723T) (protein) MSPMDLQESAAALVRQLGERVEDRRGFGFMSPAIYDTAWVSMISKTIDDQKTWLFAECFQYILSHQLEDGGWAMYASEIDAILNTSASLLSLKRHLSNPYQITSITQEDLSARINRAQNALQKLLNEWNVDSTLHVGFEILVPALLRYLEDEGIAFAFSGRERLLEIEKQKLSKFKAQYLYLPIKVTALHSLEAFIGAIEFDKVSHHKVSGAFMASPSSTAAYMMHATQWDDECEDYLRHVIAHASGKGSGGVPSAFPSTIFESVWPLSTLLKVGYDLNSAPFIEKIRSYLHDAYIAEKGILGFTPFVGADADDTATTILVLNLLNQPVSVDAMLKEFEEEHHFKTYSQERNPSFSANCNVLLALLYSQEPSLYSAQIEKAIRFLYKQFTDSEMDVRDKWNLSPYYSWMLMTQAITRLTTLQKTSKLSTLRDDSISKGLISLLFRIASTVVKDQKPGGSWGTRASKEETAYAVLILTYAFYLDEVTESLRHDIKIAIENGCSFLSERTMQSDSEWLWVEKVTYKSEVLSEAYILAALKRAADLPDENAEAAPVINGISTNGFEHTDRINGKLKVNGTNGTNGSHETNGINGTHEIEQINGVNGTNGHSDVPHDTNGWVEEPTAINETNGHYVNGTNHETPLTNGISNGDSVSVHTDHSDSYYQRSDWTADEEQILLGPFDYLESLPGKNMRSQLIQSFNTWLKVPTESLDVIIKVISMLHTATLLIDDIQDQSILRRGQPVAHSIFGTAQAMNSGNYVYFLALREVQKLQNPKAISIYVDSLIDLHRGQGMELFWRDSLMCPTEEQYLDMVANKTGGLFCLAIQLMQAEATIQVDFIPLVRLLGIIFQICDDYLNLKSTAYTDNKGLCEDLTEGKFSFPIIHSIRSNPGNRQLINILKQKPREDDIKRYALSYMESTNSFEYTRGVVRKLKTEAIDTIQGLEKHGLEENIGIRKILARMSLEL | 36 ± 3 | 0.051 | 1400
5 |  |  | PvCPS (full-length copalyl diphosphate synthase) (Talaromyces verruculosus; F760A) (protein) MSPMDLQESAAALVRQLGERVEDRRGFGFMSPAIYDTAWVSMISKTIDDQKTWLFAECFQYILSHQLEDGGWAMYASEIDAILNTSASLLSLKRHLSNPYQITSITQEDLSARINRAQNALQKLLNEWNVDSTLHVGFEILVPALLRYLEDEGIAFAFSGRERLLEIEKQKLSKFKAQYLYLPIKVTALHSLEAFIGAIEFDKVSHHKVSGAFMASPSSTAAYMMHATQWDDECEDYLRHVIAHASGKGSGGVPSAFPSTIFESVWPLSTLLKVGYDLNSAPFIEKIRSYLHDAYIAEKGILGFTPFVGADADDTATTILVLNLLNQPVSVDAMLKEFEEEHHFKTYSQERNPSFSANCNVLLALLYSQEPSLYSAQIEKAIRFLYKQFTDSEMDVRDKWNLSPYYSWMLMTQAITRLTTLQKTSKLSTLRDDSISKGLISLLFRIASTVVKDQKPGGSWGTRASKEETAYAVLILTYAFYLDEVTESLRHDIKIAIENGCSFLSERTMQSDSEWLWVEKVTYKSEVLSEAYILAALKRAADLPDENAEAAPVINGISTNGFEHTDRINGKLKVNGTNGTNGSHETNGINGTHEIEQINGVNGTNGHSDVPHDTNGWVEEPTAINETNGHYVNGTNHETPLTNGISNGDSVSVHTDHSDSYYQRSDWTADEEQILLGPFDYLESLPGKNMRSQLIQSFNTWLKVPTESLDVIIKVISMLHTASLLIDDIQDQSILRRGQPVAHSIFGTAQAMNSGNYVYALALREVQKLQNPKAISIYVDSLIDLHRGQGMELFWRDSLMCPTEEQYLDMVANKTGGLFCLAIQLMQAEATIQVDFIPLVRLLGIIFQICDDYLNLKSTAYTDNKGLCEDLTEGKFSFPIIHSIRSNPGNRQLINILKQKPREDDIKRYALSYMESTNSFEYTRGVVRKLKTEAIDTIQGLEKHGLEENIGIRKILARMSLEL | 38 ± 1 | 0.0279 | 740
6 |  |  | PvCPS (full-length copalyl diphosphate synthase) (Talaromyces verruculosus; S723F) (protein) MSPMDLQESAAALVRQLGERVEDRRGFGFMSPAIYDTAWVSMISKTIDDQKTWLFAECFQYILSHQLEDGGWAMYASEIDAILNTSASLLSLKRHLSNPYQITSITQEDLSARINRAQNALQKLLNEWNVDSTLHVGFEILVPALLRYLEDEGIAFAFSGRERLLEIEKQKLSKFKAQYLYLPIKVTALHSLEAFIGAIEFDKVSHHKVSGAFMASPSSTAAYMMHATQWDDECEDYLRHVIAHASGKGSGGVPSAFPSTIFESVWPLSTLLKVGYDLNSAPFIEKIRSYLHDAYIAEKGILGFTPFVGADADDTATTILVLNLLNQPVSVDAMLKEFEEEHHFKTYSQERNPSFSANCNVLLALLYSQEPSLYSAQIEKAIRFLYKQFTDSEMDVRDKWNLSPYYSWMLMTQAITRLTTLQKTSKLSTLRDDSISKGLISLLFRIASTVVKDQKPGGSWGTRASKEETAYAVLILTYAFYLDEVTESLRHDIKIAIENGCSFLSERTMQSDSEWLWVEKVTYKSEVLSEAYILAALKRAADLPDENAEAAPVINGISTNGFEHTDRINGKLKVNGTNGTNGSHETNGINGTHEIEQINGVNGTNGHSDVPHDTNGWVEEPTAINETNGHYVNGTNHETPLTNGISNGDSVSVHTDHSDSYYQRSDWTADEEQILLGPFDYLESLPGKNMRSQLIQSFNTWLKVPTESLDVIIKVISMLHTAFLLIDDIQDQSILRRGQPVAHSIFGTAQAMNSGNYVYFLALREVQKLQNPKAISIYVDSLIDLHRGQGMELFWRDSLMCPTEEQYLDMVANKTGGLFCLAIQLMQAEATIQVDFIPLVRLLGIIFQICDDYLNLKSTAYTDNKGLCEDLTEGKFSFPIIHSIRSNPGNRQLINILKQKPREDDIKRYALSYMESTNSFEYTRGVVRKLKTEAIDTIQGLEKHGLEENIGIRKILARMSLEL | 50 ± 10 | 0.11 | 2200
